Legend:
[1] = test system: His-PhbF (Herbaspirillum seropedicae SmR1); assay: EMSA; settings: apparent; 100 ng calf thymus DNA; tetramer concentration; EMSA: 10 mM Tris-HCl pH 7.5, 80 mM NaCl, 1 mM EDTA, 10 mM beta-mercaptoethanol, 5% glycerol, 20 nM DNA, 100 ng calf thymus DNA in 10 uL, 30 C 5 min; footprint: …
[2] = molecular target: the molecule itself; assay: SEC; gel filtration chromatography of purified His-PhbF; apparent molecular weight 104.3 kDa; conditions not told in the main text (Additional file 1, Figure S2)

phbF promoter (EMSA) was tested, and the Kd [1] was 450 nM.

For phaP1 promoter, the Kd [1] was 150 nM.

B1: His-PhbF (H. seropedicae SmR1 PhbF protein fused to an N-terminal six-histidine tag) (natural protein, Herbaspirillum seropedicae SmR1, UniProt D8J0C9 1-188, looked up)
chain: MTTAKNSADRLIKKYPNRRLYDTQTSSYITLTDVKQLVLDNEEFTVVDAKSGDDLTRSILLQIILEEESHGVPMFSSGALSQIIRYYGHAMQGMMGNYLEKNIQTFIDIQNKLAENSKGFYEGKPFSPEMWTQFMNVQGPMMQGMMSNYIEQSKNLFIQMQEQMQSQTKNMFGTFPFGNPGAGPDQKK
notes: the phbF gene was amplified from the genome and cloned into pET-28a (pKADO3); The pET-28a vector residues between the His tag and the protein are not described; also called His-tag PhbF protein; source: E. coli BL21(DE3) carrying pKADO3, purified (Hi-Trap Chelating Ni2+ column); not shown: His6, N-terminal, kept
For B1, the “stoichiometry N” value [2] was 4.

Source: paper PMC3206438, “Identification and characterization of PhbF: A DNA binding protein with regulatory role in the PHB metabolism of Herbaspirillum seropedicae SmR1” (BMC Microbiology, 2011)
